For 13 molecules, binding result and Kd results are on record in patent US20150056210A1 (ROTTAPHARM BIOTECH S R L, published 2015).

The labels stand for the following.
B1: CRB0123_IgG4 (antibody, V domains shown)
VH: QVQLQESGGGVVQPGRSLRLSCAASGFTFSGYGMNWVRQAPGTGLEWVATISFDGTDKYYADSVKGRFTISRDNAENTLYLQMNSLRAEDMAVYYCARDWSYAMDVWGQGTMVTVSS
VL: DIQMTQSPSSVSASVGDRVTITCRPSQGIGKYSAWYQQKPGKAPELPIYLASTLQSGVPSRFSDSGSGTEFTLTISSLQPEDFATYYCLQRNTYPWTFGQGTKVEIK
notes: also called mAb CRB0123; monoclonal antibody CRB0123
B2: monoclonal antibody CRB0102 (antibody, V domains shown)
VH: EVQLVESGSDVKKPGASVRVSCKVSGYRLTEYPIHWVRQAPGKGLEYMGGFDLENGVTKAAPRFRGRFTMTEDTSTDSVYMELKSLTSEDTAVYYCVKGPGYGALVTSFTSWGLGTLVTVSS
VL: ETTLTQSPAFMSATPGDKIYISCKASQDIDDDMNWYQQKPGEAAIFIIQEATTLVPGIPPRFSGSGYGTDFTLTINNMESEDAAYYFCPQQDNVPLTFGGGTKVDIK
notes: also called CRB0102 IgG4
B3: CRB0123 scFv (scFv)
scFv: QVQLQESGGGVVQPGRSLRLSCAASGFTFSGYGMNWVRQAPGTGLEWVATISFDGTDKYYADSVKGRFTISRDNAENTLYLQMNSLRAEDMAVYYCARDWSYAMDVWGQGTMVTVSSSGGSTSGSGKPGSGEGSSGTDIQMTQSPSSVSASVGDRVTITCRPSQGIGKYSAWYQQKPGKAPELPIYLASTLQSGVPSRFSDSGSGTEFTLTISSLQPEDFATYYCLQRNTYPWTFGQGTKVEIK
notes: VP16 fusion in the yeast selection; also called clone S50
B4: CRB0092 scFv (scFv)
scFv: QSVVTQPPSVSGAPGQRVTISCTGSSSNIGAGYDVHWYQQLPGTAPKLLIYGNDNRPSGVPDRFSGSKSGTSASLAITGLQAEDEADYYCQSYDNSLSGYAVFGGGTQLTVLSGGSTSGSGKPGSGEGSSGTQVQLVESGGGLVQPGGSLRLSCAASGFRFSSHDMHWVRQVPGKGLEWVSRIGTVGDTYYADSVKGRFTISRDNSKNTLFLQMNSLGAEDTAVYYCARDGTRYCSRTSCHSGYYYYGMDVWGQGTTVTVSS
notes: VP16 fusion in the yeast selection; also called clone C21
B5: CRB0124 scFv (scFv)
scFv: QVQLVQSGSDVKKPGASVRVSCKVSGYRLTEYPIHWVRQAPGKGLEYMGGFDLENGVTKAAPRFRGRFTMTEDTSTDSVYMELKSLTSEDTAVYYCVKGPGYGALVTSFTSWGLGTTVTVSSSGGSTSGSGKPGSGEGSSGTSYVLTQPPSVSVSPGQTASITCSGDKLEDKYACWYQQKPGQSPVLVIYHDYKRPSGIPERFSGSNSGNTATLTISRVEGGDEADYYCQVWDSGSDDQVFGGGTKLTVL
notes: VP16 fusion in the yeast selection; also called clone S53a
B6: CRB0019 scFv (scFv)
scFv: DIVMTQSHKFMSTSEGDRVSITCKASQDVGTAVAWYQQKPGQSPKLLIYWASTRHTGVPDRFTGSGSGTDFTLTISNVQSEDLADYICQQYCSHPYTFGAGTKLEIKRSGGSTSGSGKPGSGEGSRGTQVQLQQSGAEPVKPGASVKLSCTASGFNIKDTYMHWVKQRPEQGLEWIGRIDPAHGRTKYDPKFQGKATITADTSSNTAYLQLSSLSSEDTAVYYCAFYSYAIDYWGQGTSVTVSS
notes: VP16 fusion in the yeast selection; also called clone 14
B7: CRB0102 scFv (scFv)
scFv: EVQLVESGSDVKKPGASVRVSCKVSGYRLTEYPIHWVRQAPGKGLEYMGGFDLENGVTKAAPRFRGRFTMTEDTSTDSVYMELKSLTSEDTAVYYCVKGPGYGALVTSFTSWGLGTLVTVSSSGGSTSGSGKPGSGEGSSGTETTLTQSPAFMSATPGDKIYISCKASQDIDDDMNWYQQKPGEAAIFIIQEATTLVPGIPPRFSGSGYGTDFTLTINNMESEDAAYYFCPQQDNVPLTFGGGTKVDIK
notes: VP16 fusion in the yeast selection; also called clone 15A
B8: CRB0122 scFv (scFv)
scFv: QVQLQESGGGLVRPGGSLRLSCAASGFTFSSYAMTWVRQAPGKGLEWVSAISGSGDSTYYADSVKGRFTISRDNSKNTLYLQMDSLRVEDTAVYYCARDRDLLHKDGFDIWGQGTMVTVSSSGGSTSGSGKPGSGEGSSGTQSVLTQPPSASASLGASVTLTCTLSSGYSNYKVDWYQQTPGKGPRFVMRVGTGGTVGSKGDGIPDRFSVLGSGLNRYLIIKNIQEEDETDYHCGADHGSGSNFVYVFGSGTKVTVL
notes: VP16 fusion in the yeast selection; also called clone S39
B9: CRB0018 scFv (scFv)
scFv: DIVMTQSPASLAVSQGQRATISCRASESVDSYGNSFMHWYQQKPGQPPKLPIYLASNLESGVPARFSGSGSRTDFTLTIDPVEADDAATYYCQQNNEELTFGAGTKLELKRSGGSTSGSGKPGSSEGSSGTEVKLLESGGGLVQPGGSLKLSCTTSGFDFSRYWMSWVRQAPGKGLEWIGEINPDSSTINYTPSLKDKFIISRDNAKNTLYLQMSKVRSEDTALYYCARRSYWYFDVWGAGTSVTVSS
notes: VP16 fusion in the yeast selection; also called clone 7A (mSPLINT)
B10: CRB0094 scFv (scFv)
scFv: QSVLTQPPSASGSPGQSVTISCTGTSSDVGGYNYVSWYQQHPGKAPKLLIYDVSNRPSGVSSRFSGSKSGNSASLTISGLQAEDEADYYCSSYTRRSTLEFGGGTKLTVLSGGSTSGSGKPGSGEGSSGTQVQLQQWGAGLLKPSGTLSLTCAVYGGSFSGYYWSWIRQPPGKGLEWIGEINHSGSTNYNPSLKSRVTISVDTSKNQFSLKLSSVTAADTAVYYCARTIWSTRHDFWSGYYSSNWFDPWGQGTLVTVSS
notes: VP16 fusion in the yeast selection; also called clone 48B
B11: CRB0017 scFv (scFv)
scFv: DIVITQDELSNPVTSGESVSISCRSSKSLLYKDGKTYLYWFLQRPGQSPQLPIYLMSTRASGVSDRFSGSGSGTDFTLEISRVKAEDVGVYYCQQLVEYPYTFGGGTKLEIKRSGGSTRGSGKPGSGEGSSGTQVQLQQSGAELAKPGASVKMSCKASGYTFTSYWMHWVKQRPGQGLEWIGYINPSTGYTEYNQKFKDKATLTADKSSSTAYMQLGSLTSEDSAVYYCARGGYDDLGYWGQGTTLTVSS
notes: detected in ELISA with an anti-V5 antibody, tag not described; also called clone M6
B12: CRB0091 scFv (scFv)
scFv: DIVMTQSPSSLSASVGDRVTITCRASQAIGNDLAWYQQRPGKAPKRLIYGASTLSSGVPSRFSGSGSGTEFTLTISSLQPDDFATYYCQQYNNFPYTFGLGTKVEIKSGGSTSGSGKPGSGEGSSGTQVQLQQWGAGLLKPSETLSLTCAVHGGSFSGNFWSWVRQHPGKGLEWIGEVNHRGSATYNPSLKSRVTMSVDTSKNQFSLQLSSVTAADTAVYYCARKLPRRRAEDRPSSLRPFDYWGQGTLVTVSS
notes: VP16 fusion in the yeast selection; also called clone 7A (huSPLINT_09)
B13: CRB0017_IgG4 (antibody, V domains shown)
VH: QVQLQQSGAELAKPGASVKMSCKASGYTFTSYWMHWVKQRPGQGLEWIGYINPSTGYTEYNQKFKDKATLTADKSSSTAYMQLGSLTSEDSAVYYCARGGYDDLGYWGQGTTLTVSS
VL: DIVITQDELSNPVTSGESVSISCRSSKSLLYKDGKTYLYWFLQRPGQSPQLPIYLMSTRASGVSDRFSGSGSGTDFTLEISRVKAEDVGVYYCQQLVEYPYTFGGGTKLEIK
notes: Chimeric IgG: murine variable domains on human constant domains (Fc from human IgG4, kappa light chain), made in CHO-S cells; also called mAb CRB0017; CRB017 IgG4

The target in one assay is T1, Spacer-GST (human).
T1 construct: also called recombinant Spacer-ADAMTS-5-GST protein
T1 sequence (chain, as listed by the source limits assumed): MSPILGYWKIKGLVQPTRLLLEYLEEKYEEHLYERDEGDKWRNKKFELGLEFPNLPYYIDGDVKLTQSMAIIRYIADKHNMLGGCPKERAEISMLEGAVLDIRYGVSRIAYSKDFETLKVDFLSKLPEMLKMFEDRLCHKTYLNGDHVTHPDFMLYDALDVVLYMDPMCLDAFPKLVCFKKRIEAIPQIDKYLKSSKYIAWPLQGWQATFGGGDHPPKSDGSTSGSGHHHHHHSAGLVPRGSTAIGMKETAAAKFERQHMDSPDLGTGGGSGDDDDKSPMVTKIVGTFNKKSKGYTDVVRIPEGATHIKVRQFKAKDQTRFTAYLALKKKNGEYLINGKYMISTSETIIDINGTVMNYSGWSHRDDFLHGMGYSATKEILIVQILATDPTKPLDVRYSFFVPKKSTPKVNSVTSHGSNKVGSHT
In words: sandwich ELISA with Spacer-GST, data not shown. Background: An ELISA detects its analyte on a solid surface through an enzyme-linked reagent.
Take B1: the binding result is reported as “binds”.

B2: the binding result is recorded as “binds”.

A further assay concerns the target T1, Spacer-GST. In words: ELISA, Spacer-GST coated at 10 µg/mL, scFv in solution, anti-V5 detection. How it is done: FIG. 3. ELISA reactivity of isolated anti-Sp_ADAMTS-5 scFvs with Spacer-GST and GST negative control. Spacer-GST and GST antigens were coated at 10 μg/mL. […] The mean absorbance at 450 nm of the experiments performed in duplicate wells is shown with SD indicated by the bars.
Nunc Maxi-Sorp Immunoplate was coated with […] Sp_ADAMTS-5-GST and GST at 10 μg/mL in coating buffer (100 mM Na₂CO₃ pH 9.6). Plate was incubated overnight at 4° C. next day, the unbound antigens were discarded and plate was washed 3× with PBS. Non-specific binding was blocked by adding […] of 3% MPBS (3% fat free milk in PBS). Plate was incubated for 1 h at RT. Plate was washed 3×TPBS (0.1% Tween20 in PBS) and 3×PBS. 100 μL of serial dilution of anti-Sp_ADAMTS-5scFv (0.5-50 μg/mL) in 3% MPBS was added to appropriate wells. Then plate was incubated for 2 h at RT. After washing with 3×TPBS and 3×PBS, 100 μL of anti-V5 antibody (Invitrogen) diluted 1:5000 in 3% MPBS was added to each well. Plate was incubated for 1 h and 30 min at RT. After washing with 3×TPBS and 3×PBS 100 μL of anti-mouse HRP (DAKO) diluted 1:2000 in 3% MPBS was added to each well. Plate was incubated for 1 h at RT. After washing with 3×TPBS and 3×PBS 80 μL of TMB (Sigma) was added. Plate was incubated in dark chamber until samples reach the desired signal. 80 μL of stopping solution (500 mM H₂SO₄) was added to each well before reading. Data were collected measuring OD(450 nm) by LD 400 Luminescence Detector (Beckman Coulter).
With B3, the binding result is “binds”.

Consider B4, for which the binding result is “binds”.

Take B5: the binding result is reported as “binds”.

In the case of B6, the binding result is on record as “binds”.

With B7, the binding result was “binds”.

B8: the binding result is on record as “binds”.

On to B9, for which the binding result was “binds”.

For B10, the binding result was “binds”.

Regarding B11, the binding result is “binds”.

Consider B12, for which the binding result was “binds”.

The target in another assay is T1, Spacer-GST. In words: SPR (Biacore X-100), CRB0017_IgG4 immobilised on CM5 chip, Spacer-GST in solution, KD1. In general terms: Surface plasmon resonance follows binding to a sensor surface in real time, without labels.
B13: the Kd is approximately 2 nM.

The next assay has as its target T1, Spacer-GST. In words: SPR (Biacore), Spacer-GST immobilised, CRB0017_IgG4 in solution, bivalent binding model, KD2, data not shown.
For the molecule B13, the Kd came to 7 nM.
